Assay results taken from patent US10562935B2, “Stapled peptides and uses thereof” (London Health Sciences Centre Research Inc., priority 2015, dated 2020).
Bridges are numbered along the chain shown (N, C = ends).

What was measured:
[1] = Circular dichroism (CD) spectroscopy of linear and stapled peptides in water or 40% TFE/water (Example 3); type: physicochemical; settings: for [0]208 mean residue ellipticity: λ = 208 nm; for [0]222 mean residue ellipticity: λ = 222 nm
How it was run: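 Spectra 180–260 nm at 20 °C, 0.5 mM N-acetylated, C-amidated peptides in 0.1M phosphate buffer (water) or 40% TFE/water, 1 mm path, five scans averaged, buffer baseline subtracted. Mean residue ellipticity reported at 222 and 208 nm with the 222/208 ratio as helicity index.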

[2] = Direct HA-binding ELISA of biotinylated peptides on HA coated plates (Example 4); parameters: key to HA binding: absorbance (color) read at 450 nm; settings: for HA binding: as repeated in tables 16, 18, 20; for HA direct binding (OD): optical density, summary tables 15, 17, 19
How it was run: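 N-terminally biotinylated peptides (AEEA spacer) added to HA-coated wells at 0.8 or 0.08 μM, n=3, overnight at 4° C with shaking; biotin-labeled 7 kDa RHAMM as positive control. Bound peptide detected with streptavidin-HRP (1 hr, room temperature) and TMB substrate (5-10 min), absorbance at 450 nm.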

NF-κB = assay: Inflammation assay: NF-κB inducible SEAP reporter in RAW-Blue macrophages stimulated with PAM3CSK4; type: cell-based, murine; settings: for inhibition of inflammation (SEAP / NF-κB activity, in words): 10 ng/mL peptide with 200 ng/mL PAM3CSK4, 18 hours, compared to +PAM3; for Inflammation (% Inhib.): % inhibition relative to positive control
Method: Compounds 132, 133, 135, 150, 152, 157-161, 265-269, 275, 277, and 278 were evaluated for their ability to inhibit inflammation. To determine the effect of the peptides on inflammation, commercially available murine RAW 264.7 macrophages carrying a secreted embryonic alkaline phosphatase (SEAP) reporter that is inducible by NF-κB (RAW-Blue; InvivoGen, San Diego, Calif., USA) were used. Cells were grown to 80% confluence in DMEM containing 4.5 g/L glucose, 10% heat-inactivated fetal bovine serum, 2 mM L-glutamine, 50 μg/mL penicillin/streptomycin, 100 μg/mL Normocin (InvivoGen) at 37° C. in 5% CO2. For peptide screening experiments, cells were scraped in growth medium, counted, and plated to flat-bottom 96-well plates at a density of 5×10^4 cells/well either in the presence or absence (control) of 200 ng/mL TLR1/TLR2 agonist PAM3CSK4 (InvivoGen). Peptides were added in 6 replicate wells at a dose of 10 ng/mL in the presence of PAM3CSK4. After 18 hours of stimulation, SEAP concentrations (indicating NF-κB activity) were measured in the supernatants collected from the RAW-Blue cells using QUANTI-BLUE reagent (InvivoGen). After 20 minutes of incubation at 37° C., SEAP levels were determined using spectrophotometry at a wavelength of 630 nm.
Values are the mean and SDM of n=3 replicates. *p<0.05 and ***p<0.001 compared to +PAM3. In FIGS. 44 and 45, where bars are labeled with two compound numbers (“133/150” and “135/152”) this means that the data were pooled for the indicated compounds, i.e., for the non-acetylated and acetylated versions of the indicated peptides.

[3] = [θ]222/[θ]208 ratio in water, summary tables 15, 17, 19
[4] = as repeated in tables 16, 18, 20

Substance | [θ]222/[θ]208 ratio of ellipticities [1, 3] | [θ]222/[θ]208 ratio of ellipticities [1, 4] | [0]222/[0]208 ratio of ellipticities ([1]; in 40% TFE/water) | [0]222/[0]208 ratio of ellipticities ([1]; in water) | alpha-helical character by CD (in words) ([1]; in water) | [0]208 mean residue ellipticity ([1]; in 40% TFE/water) | [0]208 mean residue ellipticity ([1]; in water) | [0]222 mean residue ellipticity ([1]; in 40% TFE/water) | [0]222 mean residue ellipticity ([1]; in water) | HA binding [2] | HA direct binding (OD) [2] | inhibition of inflammation (SEAP / NF-κB activity, in words) (NF-κB) | Inflammation (% Inhib.) (NF-κB) | [0]208 mean residue ellipticity at λ=208 nm ([1]; 40% TFE/water) | [0]222/[0]208 ratio of ellipticities ([1]; 40% TFE/water) | [0]222 mean residue ellipticity at λ=222 nm ([1]; 40% TFE/water) | [0]208 mean residue ellipticity at λ=208 nm ([1]; water) | [0]222/[0]208 ratio of ellipticities ([1]; water) | [0]222 mean residue ellipticity at λ=222 nm ([1]; water) | direct HA binding (in words) ([2]; biotinylated equivalents of the named compounds, 0.8 or 0.08 μM, vs PBS only control)
Ac-(cyclo-8,12)-NLKQKIK[EVVKK]KDE-NH2 (Ac-NLKQKIKEVVKKKDE-NH2; lactam 8-12; SMILES CC[C@H](C)[C@H](NC(=O)[C@H](CCCCN)NC(=O)[C@H](CCC(N)=O)NC(=O)[C@H](CCCCN)NC(=O)[C@H](CC(C)C)NC(=O)[C@H](CC(N)=O)NC(C)=O)C(=O)N[C@@H](CCCCN)C(=O)N[C@H]1CCC(=O)NCCCC[C@@H](C(=O)N[C@@H](CCCCN)C(=O)N[C@@H](CC(=O)O)C(=O)N[C@@H](CCC(=O)O)C(N)=O)NC(=O)[C@H](CCCCN)NC(=O)[C@H](C(C)C)NC(=O)[C@H](C(C)C)NC1=O) [Compound 161] | 0.31 | 0.31 | 0.82 | 0.31 | decreased helicity | -1.96E+04 deg cm^2 dmol^−1 | -5.85E+03 deg cm^2 dmol^−1 | -1.60E+04 deg cm^2 dmol^−1 | -1.80E+03 deg cm^2 dmol^−1 | 0.009 | 0.009 OD | significantly inhibited inflammation | 6 % Inhib. | – | – | – | – | – | – | –
Ac-KIKHVVKLKDENSQLKSEVSKLRSQLVKRK-NH2 [Compound 265] | 0.40 | 0.40 | – | – | – | – | – | – | – | 0.10 | 0.10 OD | significantly inhibited inflammation | 18 % Inhib. | -2.72E04 deg cm^2 dmol^−1 | 0.80 | -2.18E04 deg cm^2 dmol^−1 | -2.73E+04 deg cm^2 dmol^−1 | 0.40 | -1.09E+04 deg cm^2 dmol^−1 | –
Ac-(cyclo-6,10)-VSKLR[EQLVK]RKQN-NH2 (Ac-VSKLREQLVKRKQN-NH2; lactam 6-10; SMILES CC(=O)N[C@H](C(=O)N[C@@H](CO)C(=O)N[C@@H](CCCCN)C(=O)N[C@@H](CC(C)C)C(=O)N[C@@H](CCCNC(=N)N)C(=O)N[C@H]1CCC(=O)NCCCC[C@@H](C(=O)N[C@@H](CCCNC(=N)N)C(=O)N[C@@H](CCCCN)C(=O)N[C@@H](CCC(N)=O)C(=O)N[C@@H](CC(N)=O)C(N)=O)NC(=O)[C@H](C(C)C)NC(=O)[C@H](CC(C)C)NC(=O)[C@H](CCC(N)=O)NC1=O)C(C)C) [Compound 152] | – | 0.61 | 0.70 | 0.61 | – | -1.50E+04 deg cm^2 dmol^−1 | -7.90E+03 deg cm^2 dmol^−1 | -1.19E+04 deg cm^2 dmol^−1 | -4.85E+03 deg cm^2 dmol^−1 | 0.005 | – | significantly inhibited inflammation | – | – | – | – | – | – | – | bound poorly to HA
Ac-(cyclo-5,9)-NLKQ[EIKHK]VKLKDE-NH2 (Ac-NLKQEIKHKVKLKDE-NH2; lactam 5-9; SMILES CC[C@H](C)[C@@H]1NC(=O)[C@@H](NC(=O)[C@H](CCC(N)=O)NC(=O)[C@H](CCCCN)NC(=O)[C@H](CC(C)C)NC(=O)[C@H](CC(N)=O)NC(C)=O)CCC(=O)NCCCC[C@@H](C(=O)N[C@H](C(=O)N[C@@H](CCCCN)C(=O)N[C@@H](CC(C)C)C(=O)N[C@@H](CCCCN)C(=O)N[C@@H](CC(=O)O)C(=O)N[C@@H](CCC(=O)O)C(N)=O)C(C)C)NC(=O)[C@H](Cc2c[nH]cn2)NC(=O)[C@H](CCCCN)NC1=O) [Compound 158] | 0.43 | 0.43 | 0.84 | 0.43 | – | -1.70E+04 deg cm^2 dmol^−1 | -6.60E+03 deg cm^2 dmol^−1 | -1.24E+04 deg cm^2 dmol^−1 | -2.83E+03 deg cm^2 dmol^−1 | 0.005 | 0.005 OD | – | 0 % Inhib. | – | – | – | – | – | – | –
Ac-(cyclo-4,8)-NLK[EKIKK]VVKLKDE-NH2 (Ac-NLKEKIKKVVKLKDE-NH2; lactam 4-8; SMILES CC[C@H](C)[C@@H]1NC(=O)[C@H](CCCCN)NC(=O)[C@@H](NC(=O)[C@H](CCCCN)NC(=O)[C@H](CC(C)C)NC(=O)[C@H](CC(N)=O)NC(C)=O)CCC(=O)NCCCC[C@@H](C(=O)N[C@H](C(=O)N[C@H](C(=O)N[C@@H](CCCCN)C(=O)N[C@@H](CC(C)C)C(=O)N[C@@H](CCCCN)C(=O)N[C@@H](CC(=O)O)C(=O)N[C@@H](CCC(=O)O)C(N)=O)C(C)C)C(C)C)NC(=O)[C@H](CCCCN)NC1=O) [Compound 157] | 0.38 | 0.38 | 0.80 | 0.38 | decreased helicity | -1.56E+04 deg cm^2 dmol^−1 | -6.40E+03 deg cm^2 dmol^−1 | -1.25E+04 deg cm^2 dmol^−1 | -2.46E+03 deg cm^2 dmol^−1 | 0.02 | 0.02 OD | – | 0 % Inhib. | – | – | – | – | – | – | –
Ac-(cyclo-28-32)-NLKQKIKHVVKLKDENSQLKSEVSKLR[EQLVK]RKQN-NH2 (Ac-NLKQKIKHVVKLKDENSQLKSEVSKLREQLVKRKQN-NH2; lactam 28-32; SMILES CC[C@H](C)[C@H](NC(=O)[C@H](CCCCN)NC(=O)[C@H](CCC(N)=O)NC(=O)[C@H](CCCCN)NC(=O)[C@H](CC(C)C)NC(=O)[C@H](CC(N)=O)NC(C)=O)C(=O)N[C@@H](CCCCN)C(=O)N[C@@H](Cc1c[nH]cn1)C(=O)N[C@H](C(=O)N[C@H](C(=O)N[C@@H](CCCCN)C(=O)N[C@@H](CC(C)C)C(=O)N[C@@H](CCCCN)C(=O)N[C@@H](CC(=O)O)C(=O)N[C@@H](CCC(=O)O)C(=O)N[C@@H](CC(N)=O)C(=O)N[C@@H](CO)C(=O)N[C@@H](CCC(N)=O)C(=O)N[C@@H](CC(C)C)C(=O)N[C@@H](CCCCN)C(=O)N[C@@H](CO)C(=O)N[C@@H](CCC(=O)O)C(=O)N[C@H](C(=O)N[C@@H](CO)C(=O)N[C@@H](CCCCN)C(=O)N[C@@H](CC(C)C)C(=O)N[C@@H](CCCNC(=N)N)C(=O)N[C@H]1CCC(=O)NCCCC[C@@H](C(=O)N[C@@H](CCCNC(=N)N)C(=O)N[C@@H](CCCCN)C(=O)N[C@@H](CCC(N)=O)C(=O)N[C@@H](CC(N)=O)C(N)=O)NC(=O)[C@H](C(C)C)NC(=O)[C@H](CC(C)C)NC(=O)[C@H](CCC(N)=O)NC1=O)C(C)C)C(C)C)C(C)C) [Compound 277] | 0.64 | 0.64 | – | – | – | – | – | – | – | 0.12 | 0.12 OD | significantly inhibited inflammation | 8 % Inhib. | -3.10E04 deg cm^2 dmol^−1 | 0.85 | -2.65E04 deg cm^2 dmol^−1 | -1.46E+04 deg cm^2 dmol^−1 | 0.64 | -9.36E+03 deg cm^2 dmol^−1 | –
Ac-(cyclo-11-15, cyclo-16-20)-KIKHVVKLKD[ENSQK][ESEVK]KLRSQLVKRIK-NH2 [Compound 267] | 0.48 | 0.48 | – | 0.48 | – | – | – | – | – | 0.01 | 0.01 OD | – | 0 % Inhib. | -3.02E04 deg cm^2 dmol^−1 | 0.77 | -2.34E04 deg cm^2 dmol^−1 | -1.29E+04 deg cm^2 dmol^−1 | 0.48 | -6.14E+03 deg cm^2 dmol^−1 | –
